Test results: article PMC6075789, “Comparative proteomics of the two T. brucei PABPs suggests that PABP2 controls bulk mRNA” (PLoS Neglected Tropical Diseases, 2018)
Where two headings read alike, the source gives them in different places.

B1: PABP1-4Ty1 (natural protein, T. brucei, UniProt Q38E63 1-566, looked up)
chain: MTIAAQGVPSGPSATKPLQVASLYVGDLDPAINEPQLVDIFKPYGTILNVRVCRDIITQRSLGYGYVNYDDVNSASKAMEELNFKRVGEKCIRIMWQQRDPALRYSGSGNIFVKNLKEEVDSRELSLIFKKFGEILSCKVMDDESGKSRGYGFVHFKDDDAAKAAIEKMNGDKEHADADKAALYVANFIRRNARLAALVANFTNVYIKQLLPTVDKDVIEKFFSKFGGITSAAICKDKNGRAFAFCNFEKHDDAVKAIEASHDQEVEGVTQPGEKLYVQRAQPRSERLIALRQKYMQCQSLGNNLYVRNFDAEFTEKDLNELFKEYGVIRSCRVMTDANGISRGFGFVSFENADQANAALREMNGRMLNGKPLVVNIAQRRDQRLTMLKLQLQQRLQMMMHHMHPPPFGMPGHPLQRRNARSGGRGNRPHPRQQQPQPQPEPQPPLATTVPPAAAHSVMFTAPSMGFSAVPRTPQASPAIAPDTPPLPPISAEDLQQMSVDEQRAALGDRLYIKVHELAPDHAPKITGMFLEMNPKEALALLSNPKLMHEKVTEALCVLKVHASSA
notes: also called PABP-Ty1; source: T. brucei procyclic Lister 427, expressed from the endogenous locus, in lysate of cryomilled cells

Legend:
[1] = target: eIF4E4 eYFP fusion protein (T. brucei); test: co-IP; eYFP fusion of eIF4E4 or G1-IP2 precipitated from cryomilled powder in low salt buffer with anti-GFP nanobody LaG16-LaG2 on magnetic beads; co-precipitated PABP-4Ty1 detected by western blot with anti-Ty1 (BB2); enrichment against beads without antibody, two replicates
[2] = target: T1, G1-IP2 eYFP fusion protein (T. brucei, UniProt Q387L6 1-435); test: as above
T1 construct: The methods say N-terminal eYFP for all proteins but RBP23; the results print the label G1-IP2-eYFP; source: T. brucei procyclic Lister 427, expressed from the endogenous locus, in lysate of cryomilled cells; not shown: eYFP, N-terminal, kept
T1 sequence (looked up): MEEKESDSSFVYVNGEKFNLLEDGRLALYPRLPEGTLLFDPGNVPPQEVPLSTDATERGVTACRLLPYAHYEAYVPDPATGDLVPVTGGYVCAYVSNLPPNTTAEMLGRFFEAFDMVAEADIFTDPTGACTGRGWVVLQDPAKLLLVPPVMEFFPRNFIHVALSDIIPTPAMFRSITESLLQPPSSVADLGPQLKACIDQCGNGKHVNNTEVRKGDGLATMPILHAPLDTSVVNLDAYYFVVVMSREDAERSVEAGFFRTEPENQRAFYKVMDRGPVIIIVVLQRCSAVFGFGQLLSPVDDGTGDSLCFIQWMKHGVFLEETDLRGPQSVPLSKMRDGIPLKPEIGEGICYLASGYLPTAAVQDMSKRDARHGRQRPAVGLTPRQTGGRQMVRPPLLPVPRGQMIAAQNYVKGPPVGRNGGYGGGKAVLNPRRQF

| Molecule | enrichment ratio against control beads without antibody [1] [fold] | enrichment ratio against control beads without antibody [2] [fold] | enrichment ratio against control beads without antibody ([2]; partners not purified) [fold] |
| --- | --- | --- | --- |
| PABP2-4Ty1 (natural protein) | 3 | 19 |  |
| B1 | 64 |  | 4 |
